{
  "source": "paper PMC3799859",
  "parents": {"B1": {"name": "ΔIRE1-V5/His (ER lumenal domain of human IRE1) [human] / FLAG-tagged full-length wild-type IRE1 [human] (parent)", "chain 1": "IFGSTSTVTLPETLLFVSTLDGSLHAVSKRTGSIKWTLKEDPVLQVPTHVEEPAFLPDPNDGSLYTLGSKNNEGLTKLPFTIPELVQASPCRSSDGILYMGKKQDIWYVIDLLTGEKQQTLSSAFADSLCPSTSLLYLGRTEYTITMYDTKTRELRWNATYFDYAASLPEDDVDYKMSHFVSNGDGLVVTVDSESGDVLWIQNYASPVVAFYVWQREGLRKVMHINVAVETLRYLTFMSGEVGRITKWKYPFPKETEAKSKLTPTLYVGKYSTSLYASPSMVHEGVAVVPRGSTLPLLEGPQTDGVTIGDKGECVITPSTDVKFDPGLKSKNKLNYLRNYWLLIGHHETPLSASTKMLERFPNNLPKHRENVIPADSEKKSFEEVINLVDQTSENAPTTVSRDVEEKPAHAPARPEAPVDSMLKDMATIILSTFLLIGWVAFIITYPLSMHQQQQLQHQQFQKELEKIQLLQQQQQQLPFHPPGDTAQDGELLDTSGPYSESSGTSSPSTSPRASNHSLCSGSSASKAGSSPSLEQDDGDEETSVVIVGKISFCPKDVLGHGAEGTIVYRGMFDNRDVAVKRILPECFSFADREVQLLRESDEHPNVIRYFCTEKDRQFQYIAIELCAATLQEYVEQKDFAHLGLEPITLLQQTTSGLAHLHSLNIVHRDLKPHNILISMPNAHGKIKAMISDFGLCKKLAVGRHSFSRRSGVPGTEGWIAPEMLSEDCKENPTYTVDIFSAGCVFYYVISEGSHPFGKSLQRQANILLGACSLDCLHPEKHEDVIARELIEKMIAMDPQKRPSAKHVLKHPFFWSLEKQLQFFQDVSDRIEKESLDGPIVKQLERGGRAVVKMDWRENITVPLQTDLRKFRTYKGGSVRDLLRAMRNKKHHYRELPAEVRETLGSLPDDFVCYFTSRFPHLLAHTYRAMELCSHERLFQPYYFHEPPEPQPPVTPDAL", "chain 2": "IFGSTSTVTLPETLLFVSTLDGSLHAVSKRTGSIKWTLKEDPVLQVPTHVEEPAFLPDPNDGSLYTLGSKNNEGLTKLPFTIPELVQASPCRSSDGILYMGKKQDIWYVIDLLTGEKQQTLSSAFADSLCPSTSLLYLGRTEYTITMYDTKTRELRWNATYFDYAASLPEDDVDYKMSHFVSNGDGLVVTVDSESGDVLWIQNYASPVVAFYVWQREGLRKVMHINVAVETLRYLTFMSGEVGRITKWKYPFPKETEAKSKLTPTLYVGKYSTSLYASPSMVHEGVAVVPRGSTLPLLEGPQTDGVTIGDKGECVITPSTDVKFDPGLKSKNKLNYLRNYWLLIGHHETPLSASTKMLERFPNNLPKHRENVIPADSEKKSFEEVINLVDQTSENAPTTVSRDVEEKPAHAPARPEAPVDSMLKD"}},
  "data": [
    {"variants_of": "B1", "assay": "co-immunoprecipitation (IP: V5, Western blot for FLAG, quantified)", "settings": "with FLAG-tagged full-length wild-type IRE1 [human]; with Sig-1R overexpression; non-stressed cells; n = 4; read off a plot", "units": {"screen value": "%"}, "values": [
      {"variant": "chain 2 D105P", "screen value": 58}
    ]}
  ]
}
